Measured values as given in paper PMC6068105.

What was measured:
[1] = biological target: Human plasma fibronectin (human); assay: SPR; Biacore T100, 25 °C; fibronectin (10 μg/ml) directly immobilized on CM5 chip; CSGal-1 injected at 30 μl/min; 10 mM HEPES pH 7.4, 150 mM NaCl, 3 mM EDTA, 0.0005% TWEEN-20; steady-state model
[2] = biological target: recombinant mouse α5β1 integrin protein (mouse) (UniProt P11688); assay: SPR; Biacore T100, 25 °C; α5β1 integrin (1 μg/ml) captured by anti-α5 integrin antibody on CM5 chip; CSGal-1 injected at 30 μl/min; 10 mM HEPES pH 7.4, 150 mM NaCl, 3 mM EDTA, 0.0005% TWEEN-20; steady-state model

Sequence of Human plasma fibronectin (human) (P02751 other isoform, or with tags, fused parts or gaps): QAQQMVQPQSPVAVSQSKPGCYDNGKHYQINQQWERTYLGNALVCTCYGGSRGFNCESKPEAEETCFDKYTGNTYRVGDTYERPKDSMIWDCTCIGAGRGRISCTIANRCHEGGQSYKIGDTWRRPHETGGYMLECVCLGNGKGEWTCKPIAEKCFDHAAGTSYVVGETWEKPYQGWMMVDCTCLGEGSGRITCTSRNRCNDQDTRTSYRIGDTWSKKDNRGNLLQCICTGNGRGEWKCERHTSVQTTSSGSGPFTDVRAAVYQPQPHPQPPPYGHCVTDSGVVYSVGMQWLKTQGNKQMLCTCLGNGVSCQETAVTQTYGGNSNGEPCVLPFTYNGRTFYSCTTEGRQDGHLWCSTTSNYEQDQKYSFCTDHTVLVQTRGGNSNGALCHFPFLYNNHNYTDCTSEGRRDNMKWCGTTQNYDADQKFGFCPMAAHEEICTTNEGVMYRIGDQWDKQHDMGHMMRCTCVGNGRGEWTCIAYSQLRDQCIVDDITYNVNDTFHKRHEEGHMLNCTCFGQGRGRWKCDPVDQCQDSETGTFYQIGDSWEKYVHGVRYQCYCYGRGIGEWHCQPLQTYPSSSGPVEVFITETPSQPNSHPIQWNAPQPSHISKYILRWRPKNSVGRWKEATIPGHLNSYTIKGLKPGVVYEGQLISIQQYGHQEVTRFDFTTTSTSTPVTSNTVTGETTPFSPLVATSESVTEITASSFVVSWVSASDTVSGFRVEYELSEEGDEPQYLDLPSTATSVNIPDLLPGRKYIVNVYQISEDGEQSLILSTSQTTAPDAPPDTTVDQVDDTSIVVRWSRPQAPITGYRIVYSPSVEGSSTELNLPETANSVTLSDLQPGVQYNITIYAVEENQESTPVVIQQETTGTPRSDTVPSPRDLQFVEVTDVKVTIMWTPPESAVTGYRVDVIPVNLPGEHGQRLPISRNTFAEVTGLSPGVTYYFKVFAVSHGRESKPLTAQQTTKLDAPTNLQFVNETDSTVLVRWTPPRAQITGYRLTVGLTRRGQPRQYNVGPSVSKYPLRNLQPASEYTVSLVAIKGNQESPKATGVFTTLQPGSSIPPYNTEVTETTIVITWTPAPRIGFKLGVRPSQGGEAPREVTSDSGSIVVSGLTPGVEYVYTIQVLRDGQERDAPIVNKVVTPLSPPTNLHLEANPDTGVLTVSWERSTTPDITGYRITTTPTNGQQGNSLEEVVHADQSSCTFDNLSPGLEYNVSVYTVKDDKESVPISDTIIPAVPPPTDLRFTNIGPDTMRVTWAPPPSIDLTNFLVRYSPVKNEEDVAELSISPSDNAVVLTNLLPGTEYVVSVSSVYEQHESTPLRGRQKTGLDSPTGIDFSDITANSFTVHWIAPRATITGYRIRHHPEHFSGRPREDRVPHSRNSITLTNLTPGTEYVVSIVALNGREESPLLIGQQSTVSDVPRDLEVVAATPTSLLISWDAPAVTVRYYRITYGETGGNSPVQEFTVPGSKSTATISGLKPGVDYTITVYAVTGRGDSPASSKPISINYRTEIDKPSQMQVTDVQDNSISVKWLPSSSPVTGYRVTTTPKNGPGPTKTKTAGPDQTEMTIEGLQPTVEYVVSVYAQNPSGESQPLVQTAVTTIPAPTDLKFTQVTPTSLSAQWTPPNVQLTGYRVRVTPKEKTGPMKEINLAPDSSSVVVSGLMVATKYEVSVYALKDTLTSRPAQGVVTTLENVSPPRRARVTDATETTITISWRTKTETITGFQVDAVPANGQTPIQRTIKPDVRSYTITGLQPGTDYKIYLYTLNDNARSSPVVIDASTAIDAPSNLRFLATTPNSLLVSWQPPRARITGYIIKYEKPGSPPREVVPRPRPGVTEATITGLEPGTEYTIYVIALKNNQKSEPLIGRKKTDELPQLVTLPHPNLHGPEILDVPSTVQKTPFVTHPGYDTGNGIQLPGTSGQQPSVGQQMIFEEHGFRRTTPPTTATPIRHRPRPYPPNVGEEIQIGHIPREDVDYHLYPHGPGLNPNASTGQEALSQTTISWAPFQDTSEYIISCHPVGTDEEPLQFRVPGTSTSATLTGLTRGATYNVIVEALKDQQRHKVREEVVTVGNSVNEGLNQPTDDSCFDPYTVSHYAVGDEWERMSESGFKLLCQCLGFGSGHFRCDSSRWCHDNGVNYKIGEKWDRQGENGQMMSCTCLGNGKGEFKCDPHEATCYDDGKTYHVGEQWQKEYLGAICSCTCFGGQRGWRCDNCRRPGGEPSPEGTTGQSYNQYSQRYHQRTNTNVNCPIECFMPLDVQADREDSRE

Kd [1]: 12.4 µM
Kd [2]: 0.852 µM
Substance: CSGal-1, cysteine-less mutant of human galectin-1, tag-free recombinant protein (from UniProt P09382 1-135) (natural protein)
